Assay results published in paper PMC1919475.

Assays:
[1] = biological target: Cockayne syndrome B (CSB) protein, full-length, purified recombinant (human) (UniProt Q03468); assay: ELISA
[2] = biological target: APE1, endogenous in ECFP-CSB-CS1AN cell extracts (human (endogenous in CS1AN fibroblasts)) (UniProt P27695); assay: co-IP
[3] = biological target: APE1, major human apurinic/apyrimidinic (AP) endonuclease, full-length, purified recombinant (human) (UniProt P27695); assay: ELISA
[4] = biological target: ECFP-CSB expressed in CS1AN.S3.G2 cells (human) (UniProt Q03468); assay: co-IP

Question: “APE1, major human apurinic/apyrimidinic (AP) endonuclease, full-length, purified recombinant (from UniProt P27695 1-318) (enzyme)” was tested. Which EC50 [1] did it give?
Answer: Its EC50 is greater than 20 nM.

Question: How did the percent co-immunoprecipitated [2] turn out when “ECFP-CSB expressed in CS1AN.S3.G2 cells (from UniProt Q03468 1-1493) (natural protein)” was run?
Answer: Its percent co-immunoprecipitated is 5 to 50%.

Question: For “Cockayne syndrome B (CSB) protein, full-length, purified recombinant (from UniProt Q03468 1-1493) (natural protein)”, which EC50 [3] is on record?
Answer: Its EC50 is greater than 4.5 nM.

Question: “APE1, endogenous in ECFP-CSB-CS1AN cell extracts (from UniProt P27695 1-318) (enzyme)” was tested. Which percent co-immunoprecipitated [4] did it give?
Answer: Its percent co-immunoprecipitated is 5 to 50%.
